Sequences and labels used below:
B1: P056028-E-03 (protein)
chain: MGPTPTATAAGAAVAAASAAEQAAFRLVGHRNFVRFNPRSDRFQALAFHHVELWCADAASAAGRFSFALGVPLAARSDLSTGNSAHASLLLRSGSLSLLFTAPYAHGADAATAALPSFSAAAARRFAADHGLAVRAVALRVADAEDAFRASVAAGARPAFGPVDLGRGFRLAEVELYGDVVLRYVSYPDGAAGEPFLPGFEGVASPGAADYGLSRFDHIVGNVPELAPAAAYMAGFTGFHEFAEFTTEDVGTTESGLNSMALANNSENVLLPLNEPVHGTKRRSQIQTFLDHHGGPGVQHIALASDDVLRTLREMRARSAMGGFEFLPPPLSDYYDGVRRCAGDVLTEAQINECQELGVMVDRDDEGVLLQIFTKPVGDRPTFFLEIIQRIGCMEKDEKGQEYQKGGCGGFGKGNFSQLFKSIEDYEKSLEAKQAAAAATAQGS
modifications: Zea mays variant form created by artificial means.
B2: P056028-E-09 (protein)
chain: B1 chain with A45T, A191G, P206Q, R340K, S417G
modifications: Zea mays variant form created by artificial means.
B3: P056028-F-10 (protein)
chain: B1 chain with A45T, A191G, S214N, R340K, S417G
modifications: Zea mays variant form created by artificial means.
B4: P056028-F-06 (protein)
chain: B1 chain with A45T, A191G, P206S, Y211L, S214N, R340K, E356K, I387L, S417G
modifications: Zea mays variant form created by artificial means.
B5: P056028-F-04 (protein)
chain: B1 chain with A45T, I387L, S417G
modifications: Zea mays variant form created by artificial means.
B6: P056028-E-07 (protein)
chain: B1 chain with A45T, Y211L, S417Q, Q434R
modifications: Zea mays variant form created by artificial means.
B7: P056028-E-06 (protein)
chain: B1 chain with A45T, E244K, R340K, M394K, S417G
modifications: Zea mays variant form created by artificial means.
B8: P056028-F-03 (protein)
chain: B1 chain with A45T, A191G, L385I, M394T
modifications: Zea mays variant form created by artificial means.
B9: P056028-E-08 (protein)
chain: B1 chain with A45T, E356R, S417G
modifications: Zea mays variant form created by artificial means.
B10: P056028-F-11 (protein)
chain: B1 chain with A45T, A191G, N265D, S417G
modifications: Zea mays variant form created by artificial means.
B11: P056028-E-05 (protein)
chain: B1 chain with A45T, A191G, P206S, S417Q
modifications: Zea mays variant form created by artificial means.
B12: Mz wt (protein)
chain: MGPTPTAAAAGAAVAAASAAEQAAFRLVGHRNFVRFNPRSDRFHTLAFHHVELWCADAASAAGRFSFGLGAPLAARSDLSTGNSAHASLLLRSGSLSFLFTAPYAHGADAATAALPSFSAAAARRFAADHGLAVRAVALRVADAEDAFRASVAAGARPAFGPVDLGRGFRLAEVELYGDVVLRYVSYPDGAAGEPFLPGFEGVASPGAADYGLSRFDHIVGNVPELAPAAAYFAGFTGFHEFAEFTTEDVGTAESGLNSMVLANNSENVLLPLNEPVHGTKRRSQIQTFLDHHGGPGVQHMALASDDVLRTLREMQARSAMGGFEFMAPPTSDYYDGVRRRAGDVLTEAQIKECQELGVLVDRDDQGVLLQIFTKPVGDRPTLFLEIIQRIGCMEKDEKGQEYQKGGCGGFGKGNFSQLFKSIEDYEKSLEAKQAAAAAAAQGS
modifications: Zea mays

This is an account of results in patent US11015206B2, “Compositions and methods comprising sequences having hydroxyphenylpyruvate dioxygenase (HPPD) activity” (PIONEER HI-BRED INTERNATIONAL, INC., priority 2014, dated 2021).

Substitutions are numbered along the chain they refer to.

One series has as its system 4-hydroxyphenylpyruvate dioxygenase (HPPD). The series can be described thus: ON rate ratio: HPPD reaction rate with vs without inhibitor in the 70 to 90 second interval. The series is classed as biochemical, Z. mays. Conditions: Table 7; tembotrione; combinatorial variants. In short, it runs like this: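 Indicator of inhibitor on-rate: reaction velocity in the 70 to 90 second window with 4 μM inhibitor divided by that without. Reactions contained 100 μM HPP and 60 or 120 nM HPPD; slower binding gives a larger ratio.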
Consider B1, for which the ON rate ratio is 0.735.
Same read-out and setting: in the case of B2 it was 0.676; in that of B3, 0.726; in that of B4, 0.739.
As to B5, the ON rate ratio turned out to be 0.660.
The same measure, in the same setting: in the case of B6 it was 0.585; in that of B7, 0.346; in that of B8, 0.738.
For B9, the ON rate ratio turned out to be 0.685.
Still for that read-out and setting: the value for B10 was 0.706; that for B11 was 0.704; that for B12 was 0.213.

For a further series the test system is unchanged. The series can be described thus: OFF rate ratio: release of inhibitor from pre-formed enzyme-inhibitor complex. The series is classed as biochemical, Z. mays. Conditions: Table 7; tembotrione; combinatorial variants. In short, it runs like this: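 Inhibitor release from pre-formed complex (enzyme 7.2 μM, inhibitor 8 μM, 1 h RT) tracked as accelerating HPPD activity at 320 nm over 12 min, coupled via 50 nM HGD with 100 μM HPP at pH 7. OFF rate ratio: steady-state velocity relative to uninhibited initial velocity.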
Turning to B1, the OFF rate ratio was 0.412.
Take B2: the OFF rate ratio turned out to be 0.308.
The same measure, in the same setting: the value for B3 was 0.291; that for B4 was 0.305.
For the molecule B5, the OFF rate ratio was 0.245.
For the molecule B6, the OFF rate ratio turned out to be 0.262.
Still for that read-out and setting: in the case of B7 it was 0.186; in that of B8, 0.491; in that of B9, 0.410.
On the same count and under the same terms, in the case of B10 it was 0.322.
Still for that read-out and setting: the value for B11 was 0.325.
For the molecule B12, the OFF rate ratio was determined as 0.033.

For another series the test system is unchanged. The series can be described thus: Insensitivity parameter (ON × OFF) and trait fitness (ON × OFF × kcat/KM or × kcat). The series is classed as biochemical, Z. mays. More on the design: key to ON × OFF / Insensitivity, mesotrione, ON × OFF / Insensitivity, tembotrione, ON × OFF / Insensitivity, topramezone, ON × OFF / Insensitivity, sulcotrione, ON × OFF / Insensitivity, isoxaflutole (DKN), ON × OFF: insensitivity = ON rate ratio × OFF rate ratio (surrogate for KD). Conditions: Megatable 3; shuffled variants. In short, it runs like this:
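Trait fitness combines catalysis and insensitivity as kcat/KM × ON rate ratio × OFF rate ratio. The insensitivity parameter is the product of ON and OFF rate ratios, used in place of KD because the ON rate ratio is inverse.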
Consider B1, for which the “ON × OFF” value was determined as 0.303 and the “ON × OFF × kcat” value stood at 5.10.
Take B2: the “ON × OFF” value turned out to be 0.208 and the “ON × OFF × kcat” value was 3.10.
The matching figures for B3: 0.211 and 2.89.
For the molecule B4, the “ON × OFF” value is listed as 0.225 and the “ON × OFF × kcat” value came out at 3.25.
The matching figures for B5: 0.161 and 2.70.
On to B6, for which the “ON × OFF” value is reported as 0.153 and the “ON × OFF × kcat” value is recorded as 3.08.
For the molecule B7, the “ON × OFF” value worked out at 0.064 and the “ON × OFF × kcat” value worked out at 1.76.
As for B8, the “ON × OFF” value was determined as 0.363 and the “ON × OFF × kcat” value amounted to 4.73.
B9: the “ON × OFF” value worked out at 0.281 and the “ON × OFF × kcat” value is 3.55.
Turning to B10, the “ON × OFF” value was 0.228 and the “ON × OFF × kcat” value turned out to be 5.04.
On to B11, for which the “ON × OFF” value was determined as 0.229 and the “ON × OFF × kcat” value came to 3.48.
With B12, the “ON × OFF” value is 0.007 and the “ON × OFF × kcat” value came out at 0.68.

The series is the same for the next values; noted with them: Table 7; tembotrione; combinatorial variants.
On to B1, for which the “ON × OFF” value is given as 0.303 and the “ON × OFF × kcat” value is 5.10.
B2: the “ON × OFF” value came to 0.208 and the “ON × OFF × kcat” value was determined as 3.10.
The matching figures for B3: 0.211 and 2.89.
On the same counts, the results for B4 are 0.225 and 3.25.
With B5, the “ON × OFF” value is 0.161 and the “ON × OFF × kcat” value is recorded as 2.70.
As for B6, the “ON × OFF” value is 0.153 and the “ON × OFF × kcat” value is given as 3.08.
With B7, the “ON × OFF” value was 0.064 and the “ON × OFF × kcat” value is on record as 1.76.
The matching figures for B8: 0.363 and 4.73.
On the same counts, the results for B9 are 0.281 and 3.55.
Regarding B10, the “ON × OFF” value is given as 0.228 and the “ON × OFF × kcat” value is 5.04.
For B11, the “ON × OFF” value worked out at 0.229 and the “ON × OFF × kcat” value was 3.48.
Consider B12, for which the “ON × OFF” value amounted to 0.007 and the “ON × OFF × kcat” value is 0.68.

Another series has the same test system. The series can be described thus: Estimate of kcat from initial rate at saturating hydroxyphenylpyruvate without inhibitor (ON rate ratio assay). The series is classed as biochemical, Z. mays. Conditions: Megatable 3; shuffled variants. In short, it runs like this: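 kcat was estimated from the initial reaction rate with known enzyme level (60 or 120 nM HPPD). Hydroxyphenylpyruvate was at a saturating 100 μM, with no inhibitor present.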
Regarding B1, the kcat (as a rule, the maximal rate divided by the concentration of active sites) is 0.282 s⁻¹.
Consider B2, for which the kcat is 0.248 s⁻¹.
Same read-out and setting: the value for B3 was 0.228 s⁻¹.
Take B4: the catalytic constant (kcat) was 0.242 s⁻¹.
Take B5: the kcat was 0.278 s⁻¹.
B6: the kcat is 0.343 s⁻¹.
Consider B7, for which the catalytic constant (kcat) is 0.47 s⁻¹.
In the case of B8, the turnover number (kcat) was 0.217 s⁻¹.
As to B9, the kcat is 0.21 s⁻¹.
In the case of B10, the kcat is 0.368 s⁻¹.
On to B11, for which the kcat was 0.253 s⁻¹.
Turning to B12, the catalytic constant (kcat) was 1.62 s⁻¹.

The series is the same for the next values; noted with them: Table 7; combinatorial variants.
Take B1: the turnover number (kcat) is 0.282 s⁻¹.
Same read-out and setting: the value for B2 was 0.248 s⁻¹; that for B3 was 0.228 s⁻¹; that for B4 was 0.242 s⁻¹.
Same read-out and setting: the value for B5 was 0.278 s⁻¹; that for B6 was 0.343 s⁻¹; that for B7 was 0.47 s⁻¹.
On to B8, for which the kcat is 0.217 s⁻¹.
On to B9, for which the catalytic constant (kcat) was 0.21 s⁻¹.
Same read-out and setting: the value for B10 was 0.368 s⁻¹.
As for B11, the kcat was 0.253 s⁻¹.
As for B12, the kcat was 1.62 s⁻¹.
